Tests used:
[1] = biological target: human CD3 (particularly the epsilon subunit of CD3) (human, UniProt P07766 23-207); test: cell-based or functional assay
human Her3 = human Her3 (human, UniProt P21860 20-1342); test: cell-based or functional assay

Binder | EC50 of activation of Jurkat-NFAT reporter cells via CD3 after 5 h (luminescence, KPL4 tumor cells) [1] [pM] | EC50 of tumor cell lysis (LDH release), KPL4 cells, 24 h (human Her3) [pM] | EC50 of tumor cell lysis (LDH release), KPL4 cells, 48 h (human Her3) [pM] | EC50 of tumor cell lysis determined by Caspase 3/7 activity (luminescence), KPL-4-Caspase-3/7 GloSensor cells, 6.5 h (human Her3) [pM]
Her2 TCB: anti-Her2/anti-CD3 '2+1 IgG CrossFab, inverted' molecule with charge modifications (bispecific antibody) light: EVQLLESGGGLVQPGGSLRLSCAASGFTFSTYAMNWVRQAPGKGLEWVSRIRSKYNNYATYYADSVKGRFTISRDDSKNTLYLQMNSLRAEDTAVYYCVRHGNFGNSYVSWFAYWGQGTLVTVSSASVAAPSVFIFPPSDEQLKSGTASVVCLLNNFYPREAKVQWKVDNALQSGNSQESVTEQDSKDSTYSLSSTLTLSKADYEKHKVYACEVTHQGLSSPVTKSFNRGEC chain 1: not shown chain 2: not shown chain 3: not shown | 34.4 |  |  | 
Her3 TCB: anti-Her3/anti-CD3 '2+1 IgG CrossFab' molecule with charge modifications (bispecific antibody) light: EVQLLESGGGLVQPGGSLRLSCAASGFTFSTYAMNWVRQAPGKGLEWVSRIRSKYNNYATYYADSVKGRFTISRDDSKNTLYLQMNSLRAEDTAVYYCVRHGNFGNSYVSWFAYWGQGTLVTVSSASVAAPSVFIFPPSDEQLKSGTASVVCLLNNFYPREAKVQWKVDNALQSGNSQESVTEQDSKDSTYSLSSTLTLSKADYEKHKVYACEVTHQGLSSPVTKSFNRGEC chain 1: not shown chain 2: QVQLVQSGAEVKKPGASVKVSCKASGYTFRSSYISWVRQAPGQGLEWMGWIYAGTGSPSYNQKLQGRVTMTTDTSTSTAYMELRSLRSDDTAVYYCARHRDYYSNSLTYWGQGTLVTVSSASTKGPSVFPLAPSSKSTSGGTAALGCLVEDYFPEPVTVSWNSGALTSGVHTFPAVLQSSGLYSLSSVVTVPSSSLGTQTYICNVNHKPSNTKVDEKVEPKSCDKTHTCPPCPAPEAAGGPSVFLFPPKPKDTLMISRTPEVTCVVVDVSHEDPEVKFNWYVDGVEVHNAKTKPREEQYNSTYRVVSVLTVLHQDWLNGKEYKCKVSNKALGAPIEKTISKAKGQPREPQVCTLPPSRDELTKNQVSLSCAVKGFYPSDIAVEWESNGQPENNYKTTPPVLDSDGSFFLVSKLTVDKSRWQQGNVFSCSVMHEALHNHYTQKSLSLSP chain 3: not shown | 22 | 2.54 | 0.53 | 0.7

Source: patent US20200231673A1 (Hoffmann-La Roche, published 2020)
